# Experimental data published in US5804555.
# Target: commercially available lactoferrin (manufactured by Oleofina Company, Belgium) just as isolated from cow's milk (bovine (cow's milk)) (UniProt P24627)
substance,measurement,value
"commercially available swine pepsin (1:10000; manufactured by Wako Jun-yaku Co., Ltd.) (from UniProt P00791) (enzyme)",hydrolyzing rate of the product,11.3%
